Assay results taken from patent publication US20230406942A1 (HORIZON THERAPEUTICS IRELAND DAC, published 2023).

Key:
[1] = target: IGF-1R on NCI-H322 cells (UniProt P08069 31-1367, limits assumed); experiment: cell-based or functional assay
[2] = target: T1, IGF-1R (coated on Maxisorp plates) (UniProt P08069 31-932, limits assumed); experiment: competition ELISA, plate-coated IGF-1R, antibody titrated against 20 ng/mL IGF-1 biotin
T1 construct: also called the receptor
Description: (§1) Maxisorp plates were coated with 1.5 ug/mL of IGF-1R overnight at 4° C. Plates were washed and blocked with 1% BSA. Subsequently, serially diluted anti-IGF1R antibodies were incubated for 30 min at room temperature followed by an incubation with a final concentration of 20 ng/mL IGF-1 biotin. Plates were washed and streptavidin-horseradish peroxidase was added. After a final wash, 3,3′,5,5′-Tetramethylbenzidine was added for 8 minutes. The reaction was terminated with a HCL based stop solution. Plates were measured for absorbance at 450 nm, and the data was analyzed using Softmax Pro 7.1 software.

[3] = target: T1, IGF-1R (coated on Maxisorp plates); experiment: competition ELISA, plate-coated IGF-1R, antibody titrated against 200 ng/mL IGF-2 biotin
Description: as §1, with “of 200” for “of 20”, “ng/mL of IGF-2” for “ng/mL IGF-1”

[4] = target: T2, Human IGF-I R (Glu 31-Asn 932 with a polyhistidine tag at the C-terminus) (human, UniProt P08069 31-932); experiment: BLI (Octet RED96e), His-tagged IGF-1R on Ni-NTA sensors, Fab 0-100 nM, 1:1 global fit
T2 construct: range 31-932; Bought protein; captured on Ni-NTA biosensors for BLI; also called IGF1R; IGF-1R; not shown: C-terminal polyhistidine tag
From the text: Human IGF-I R (Glu 31-Asn 932 with a polyhistidine tag at the C-terminus) expressed from human 293 cells (HEK293) was purchased from ACROBiosystems (Newark, DE). Dip and Read Ni-NTA (NTA) Biosensors from Sartorius (Bohemia, NY) pre-immobilized with nickel-charged Tris-NTA, were enabled for kinetic characterization of novel anti-human IGF-I R antibodies. Briefly, antibody variants were digested into purified Fab fragments (to enable 1:1 binding and global fitting). The Fab[…] Fab kit from GENOVIS (Cambridge, MA) was used to generate a monovalent binding Fab domain of each antibody variant, Fab fragments are subsequently separated from Fc using the CaptureSelect™ Fc column. Binding of variant Fabs to NTA-captured human IGF-I R (His-tagged) was monitored by biolayer interferometry (BLI) on an Octet RED96e (Sartorius). NTA biosensors were charged with 10 mM NiCl2, then loaded with His-tagged human IGF-I R at approximately 5 ug/mL to an average loading response of 0.67 nm shift. Variant Fabs were assayed from 0-100 nM in 10X kinetics buffer (1X PBS, 0.1% BSA, 0.02% Tween-20 plus Kathon as a preservative) from Sartorius. Binding kinetics and affinities were determined using the Octet Analysis Studio Software (Sartorius) by applying a 1:1 global fitting to double-referenced subtracted data.

T1 sequence (P08069 31-932 limits assumed): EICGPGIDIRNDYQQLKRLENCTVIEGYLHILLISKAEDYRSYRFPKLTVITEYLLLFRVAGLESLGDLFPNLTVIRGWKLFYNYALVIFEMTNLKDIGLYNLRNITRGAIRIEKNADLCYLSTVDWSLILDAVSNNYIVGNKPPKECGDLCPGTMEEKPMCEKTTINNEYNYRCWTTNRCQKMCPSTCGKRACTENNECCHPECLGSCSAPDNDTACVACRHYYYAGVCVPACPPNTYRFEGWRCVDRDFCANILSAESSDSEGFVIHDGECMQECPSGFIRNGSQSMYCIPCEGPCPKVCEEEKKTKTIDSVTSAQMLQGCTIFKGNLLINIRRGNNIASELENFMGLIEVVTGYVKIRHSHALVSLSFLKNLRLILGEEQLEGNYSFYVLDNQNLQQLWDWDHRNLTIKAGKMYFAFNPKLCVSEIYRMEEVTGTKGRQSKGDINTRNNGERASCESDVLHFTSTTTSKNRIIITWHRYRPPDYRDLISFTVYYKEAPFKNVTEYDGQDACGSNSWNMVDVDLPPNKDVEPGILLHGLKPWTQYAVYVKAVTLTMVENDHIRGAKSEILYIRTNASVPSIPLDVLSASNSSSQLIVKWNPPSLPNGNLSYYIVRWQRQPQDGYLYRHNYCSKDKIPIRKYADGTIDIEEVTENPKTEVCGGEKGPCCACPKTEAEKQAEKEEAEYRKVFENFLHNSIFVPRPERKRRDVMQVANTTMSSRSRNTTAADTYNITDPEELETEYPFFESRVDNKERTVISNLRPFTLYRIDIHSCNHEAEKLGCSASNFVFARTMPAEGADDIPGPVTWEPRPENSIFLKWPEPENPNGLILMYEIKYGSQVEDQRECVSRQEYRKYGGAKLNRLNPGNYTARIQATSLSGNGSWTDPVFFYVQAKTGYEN
T2 sequence (P08069 31-932 limits assumed): as above
Sequence of IGF-1R on NCI-H322 cells (P08069 31-1367 limits assumed): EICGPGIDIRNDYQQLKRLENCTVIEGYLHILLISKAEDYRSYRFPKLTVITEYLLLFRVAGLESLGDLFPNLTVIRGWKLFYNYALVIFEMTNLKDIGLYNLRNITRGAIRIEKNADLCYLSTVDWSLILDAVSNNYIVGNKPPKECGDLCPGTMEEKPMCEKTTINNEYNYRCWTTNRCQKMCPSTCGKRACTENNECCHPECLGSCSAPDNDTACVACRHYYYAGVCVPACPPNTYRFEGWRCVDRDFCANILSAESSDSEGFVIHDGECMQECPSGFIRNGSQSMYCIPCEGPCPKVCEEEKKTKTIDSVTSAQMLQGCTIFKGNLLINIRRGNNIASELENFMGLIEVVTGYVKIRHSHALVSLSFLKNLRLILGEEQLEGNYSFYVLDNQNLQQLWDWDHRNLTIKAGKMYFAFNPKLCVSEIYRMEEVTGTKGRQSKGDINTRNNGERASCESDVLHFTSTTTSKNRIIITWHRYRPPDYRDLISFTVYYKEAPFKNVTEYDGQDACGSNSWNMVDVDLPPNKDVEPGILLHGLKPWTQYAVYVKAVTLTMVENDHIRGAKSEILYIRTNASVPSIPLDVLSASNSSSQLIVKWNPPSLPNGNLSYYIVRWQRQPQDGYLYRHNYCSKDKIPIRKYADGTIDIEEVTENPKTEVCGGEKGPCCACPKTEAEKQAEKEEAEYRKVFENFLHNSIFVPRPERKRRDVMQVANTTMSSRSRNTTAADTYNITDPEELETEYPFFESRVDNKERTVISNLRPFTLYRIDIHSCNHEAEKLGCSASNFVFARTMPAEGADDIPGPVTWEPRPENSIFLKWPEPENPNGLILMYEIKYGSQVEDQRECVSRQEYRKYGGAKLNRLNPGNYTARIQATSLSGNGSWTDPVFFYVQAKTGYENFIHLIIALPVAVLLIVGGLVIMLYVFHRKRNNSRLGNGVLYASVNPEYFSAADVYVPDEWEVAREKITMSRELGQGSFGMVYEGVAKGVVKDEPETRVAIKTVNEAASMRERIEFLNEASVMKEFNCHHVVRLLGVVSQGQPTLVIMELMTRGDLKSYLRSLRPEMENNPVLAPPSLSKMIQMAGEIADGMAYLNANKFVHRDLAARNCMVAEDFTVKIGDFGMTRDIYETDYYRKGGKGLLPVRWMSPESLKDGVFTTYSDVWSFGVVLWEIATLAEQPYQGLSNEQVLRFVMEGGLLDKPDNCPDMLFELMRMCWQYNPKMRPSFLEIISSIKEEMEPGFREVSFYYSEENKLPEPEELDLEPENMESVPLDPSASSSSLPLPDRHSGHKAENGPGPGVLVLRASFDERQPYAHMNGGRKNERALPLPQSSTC

Binder | Inhibition of Phosphorylation IC50 [1] | IC50 [2] | IC50 [3] | Kd [4] | koff [4] | kon [4]
F02 Fab (Fab, V domains shown) VH: QVELVESGGGVVQPGRSQRLSCAASGFTFSSHGMHWVRQAPGKGLEWVATIWFDGSSTYYADSVRGRFTISRDNSKNTLYLQMNSLRAEDTAVYFCARELGRRYFDLWGRGTLVSVSS VL: EIVLTQSPATLSLSPGERATLSCRASQSVSSTLAWYQQKPGQAPRLLIYDASKRATGIPARFSGSGSGTDFTLTISSLEPEDFAVYYCQQRSKYPPWTFGQGTKVESK |  |  |  | 1.92 nM | 0.0023 s⁻¹ | 1.2e+06 M⁻¹ s⁻¹
C10 Fab (Fab, V domains shown) VH: QVELVESGGGVVQPGRSQRLSCAASGFTFSSAGMHWVRQAPGKGLEWVAIIWADGSSTYYADSVRGRFTISRDNSKNTLYLQMNSLRAEDTAVYFCARELGRRYFDLWGRGTLVSVSS VL: EIVLTQSPATLSLSPGERATLSCRASQSVSSYLAWYQQKPGQAPRLLIYDASKRATGIPARFSGSGSGTDFTLTISSLEPEDFAVYYCQQRSKYPPWTFGQGTKVESK |  |  |  | 0.447 nM | 0.000485 s⁻¹ | 1.08e+06 M⁻¹ s⁻¹
B02 antibody (antibody, V domains shown, Whole antibody) VH: QVELVESGGGVVQPGRSQRLSCAASGFTFSSTGMHWVRQAPGKGLEWVAYIWFDGSSTYYADSVRGRFTISRDNSKNTLYLQMNSLRAEDTAVYFCARELNRRYFDLWGRGTLVSVSS VL: EIVLTQSPATLSLSPGERATLSCRASQSVSSYLAWYQQKPGQAPRLLIYDASKRATGIPARFSGSGSGTDFTLTISSLEPEDFAVYYCQQRSKYPPWTFGQGTKVESK | 0.0135 µg/mL | 0.386 µg/mL | 0.115 µg/mL |  |  | 
D03 Fab (Fab, V domains shown, also called clone D03) VH: QVELVESGGGVVQPGRSQRLSCAASGFTFSSHGMHWVRQAPGKGLEWVAYIWFDGSSTYYADSVRGRFTISRDNSKNTLYLQMNSLRAEDTAVYFCARELGRRYFDLWGRGTLVSVSS VL: EIVLTQSPATLSLSPGERATLSCRASQSVSSALAWYQQKPGQAPRLLIYDASKRATGIPARFSGSGSGTDFTLTISSLEPEDFAVYYCQQRSKYPPWTFGQGTKVESK |  |  |  | 0.407 nM | 0.000603 s⁻¹ | 1.48e+06 M⁻¹ s⁻¹
B02 Fab (Fab, V domains shown) VH: QVELVESGGGVVQPGRSQRLSCAASGFTFSSTGMHWVRQAPGKGLEWVAYIWFDGSSTYYADSVRGRFTISRDNSKNTLYLQMNSLRAEDTAVYFCARELNRRYFDLWGRGTLVSVSS VL: EIVLTQSPATLSLSPGERATLSCRASQSVSSYLAWYQQKPGQAPRLLIYDASKRATGIPARFSGSGSGTDFTLTISSLEPEDFAVYYCQQRSKYPPWTFGQGTKVESK |  |  |  | 1.54 nM | 0.00125 s⁻¹ | 810000 M⁻¹ s⁻¹
E01 Fab (Fab, V domains shown) VH: QVELVESGGGVVQPGRSQRLSCAASGFTFSSYGMHWVRQAPGKGLEWVAIIWFDGSSTYYADSVRGRFTISRDNSKNTLYLQMNSLRAEDTAVYFCARELGRRYFDLWGRGTLVSVSS VL: EIVLTQSPATLSLSPGERATLSCRASQSVSSYLAWYQQKPGQAPRLLIYDASKRATGIPARFSGSGSGTDFTLTISSLEPEDFAVYYCQQRSKYPPWTFGQGTKVESK |  |  |  | 0.179 nM | 0.000298 s⁻¹ | 2.66e+06 M⁻¹ s⁻¹
B09 Fab (Fab, V domains shown) VH: QVELVESGGGVVQPGRSQRLSCAASGFTFSSHGMHWVRQAPGKGLEWVAIIAGDASTTYYADSVRGRFTISRDNSKNTLYLQMNSLRAEDTAVYFCARELGRRYFDLWGRGTLVSVSS VL: EIVLTQSPATLSLSPGERATLSCRASQSVSSYLAWYQQKPGQAPRLLIYDASKRATGIPARFSGSGSGTDFTLTISSLEPEDFAVYYCQQRSKYPPWTFGQGTKVESK |  |  |  | 1.13 nM | 0.000799 s⁻¹ | 705000 M⁻¹ s⁻¹
B09 antibody (antibody, V domains shown, Whole antibody) VH: QVELVESGGGVVQPGRSQRLSCAASGFTFSSHGMHWVRQAPGKGLEWVAIIAGDASTTYYADSVRGRFTISRDNSKNTLYLQMNSLRAEDTAVYFCARELGRRYFDLWGRGTLVSVSS VL: EIVLTQSPATLSLSPGERATLSCRASQSVSSYLAWYQQKPGQAPRLLIYDASKRATGIPARFSGSGSGTDFTLTISSLEPEDFAVYYCQQRSKYPPWTFGQGTKVESK | 0.0083 µg/mL | 0.337 µg/mL | 0.153 µg/mL |  |  | 

Results, then the binder that gave them:

Inhibition of Phosphorylation IC50 [1] | IC50 [2] | IC50 [3] | Kd [4] | koff [4] | kon [4] | Binder
0.0115 µg/mL | 0.351 µg/mL | 0.158 µg/mL |  |  |  | A11 antibody (antibody, V domains shown, Whole antibody) VH: QVELVESGGGVVQPGRSQRLSCAASGFTFSSYGMHWVRQAPGKGLEWVAYIWFDGSSTYYADSVRGRFTISRDNSKNTLYLQMNSLRAEDTAVYFCARELGRRYFDLWGRGTLVSVSS VL: EIVLTQSPATLSLSPGERATLSCRASQSVSSYLAWYQQKPGQAPRLLIYDASKRATGIPARFSGSGSGTDFTLTISSLEPEDFAVYYCQQRSKYPPWTFGQGTKVESK
0.0065 µg/mL |  |  |  |  |  | C10 antibody (antibody, V domains shown) VH: QVELVESGGGVVQPGRSQRLSCAASGFTFSSAGMHWVRQAPGKGLEWVAIIWADGSSTYYADSVRGRFTISRDNSKNTLYLQMNSLRAEDTAVYFCARELGRRYFDLWGRGTLVSVSS VL: EIVLTQSPATLSLSPGERATLSCRASQSVSSYLAWYQQKPGQAPRLLIYDASKRATGIPARFSGSGSGTDFTLTISSLEPEDFAVYYCQQRSKYPPWTFGQGTKVESK
0.0067 µg/mL |  |  |  |  |  | D10 antibody (antibody, V domains shown) VH: QVELVESGGGVVQPGRSQRLSCAASGFTFSSYGMHWVRQAPGKGLEWVAIINFDGSSTYYADSVRGRFTISRDNSKNTLYLQMNSLRAEDTAVYFCARELGRRYFDLWGRGTLVSVSS VL: EIVLTQSPATLSLSPGERATLSCRASQSVSSYLAWYQQKPGQAPRLLIYDASKRATGIPARFSGSGSGTDFTLTISSLEPEDFAVYYCQQRSKYPPWTFGQGTKVESK
 |  |  | 0.418 nM | 0.000744 s⁻¹ | 1.78e+06 M⁻¹ s⁻¹ | H11 Fab (Fab, V domains shown) VH: QVELVESGGGVVQPGRSQRLSCAASGFTFSSYGMHWVRQAPGKGLEWVATIWHDGSSTYYADSVRGRFTISRDNSKNTLYLQMNSLRAEDTAVYFCARELGRRYFDLWGRGTLVSVSS VL: EIVLTQSPATLSLSPGERATLSCRASQSVSSALAWYQQKPGQAPRLLIYDASKRATGIPARFSGSGSGTDFTLTISSLEPEDFAVYYCQQRGKYPPWTFGQGTKVESK
 |  |  | 0.898 nM | 0.000826 s⁻¹ | 921000 M⁻¹ s⁻¹ | B10 Fab (Fab, V domains shown) VH: QVELVESGGGVVQPGRSQRLSCAASGFTFSSYGMHWVRQAPGKGLEWVATIWFDGSSTYYADSVRGRFTISRDNSKNTLYLQMNSLRAEDTAVYFCARELGRRYFDLWGRGTLVSVSS VL: EIVLTQSPATLSLSPGERATLSCRASQSVSSYLAWYQQKPGQAPRLLIYDASKRATGIPARFSGSGSGTDFTLTISSLEPEDFAVYYCQQRSKYPPWTFGQGTKVESK
0.0162 µg/mL | 0.395 µg/mL | 0.176 µg/mL |  |  |  | B10 antibody (antibody, V domains shown, Whole antibody) VH: QVELVESGGGVVQPGRSQRLSCAASGFTFSSYGMHWVRQAPGKGLEWVATIWFDGSSTYYADSVRGRFTISRDNSKNTLYLQMNSLRAEDTAVYFCARELGRRYFDLWGRGTLVSVSS VL: EIVLTQSPATLSLSPGERATLSCRASQSVSSYLAWYQQKPGQAPRLLIYDASKRATGIPARFSGSGSGTDFTLTISSLEPEDFAVYYCQQRSKYPPWTFGQGTKVESK
 |  |  | 0.849 nM | 0.00076 s⁻¹ | 895000 M⁻¹ s⁻¹ | A11 Fab (Fab, V domains shown) VH: QVELVESGGGVVQPGRSQRLSCAASGFTFSSYGMHWVRQAPGKGLEWVAYIWFDGSSTYYADSVRGRFTISRDNSKNTLYLQMNSLRAEDTAVYFCARELGRRYFDLWGRGTLVSVSS VL: EIVLTQSPATLSLSPGERATLSCRASQSVSSYLAWYQQKPGQAPRLLIYDASKRATGIPARFSGSGSGTDFTLTISSLEPEDFAVYYCQQRSKYPPWTFGQGTKVESK
